In US10472401B2, “Peptides and combination of peptides for use in immunotherapy against ovarian cancer and other cancers” (immatics biotechnologies GmbH, priority 2015, dated 2019) one finds Peptide exchange data, which are given here for 70 substances.

The target of the assay is HLA-A*02:01 (Homo sapiens, UniProt P04439, D140Y/D185E/D98H/E176V/E277Q/G131W/G231S/I119V/I121R/I166T/I218V/L300P/L318F/N151K/N90K/P208A/P217A/Q86G/Q94H/R138H/R169H/T345S). Put plainly: MHC binding assay (UV-ligand exchange, ELISA of stabilized MHC complexes). The following applies: MHC class I binding score; binding to HLA-A*02:01 ranged by peptide exchange yield (UV-ligand exchange, ELISA). In a few lines:
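Peptide-MHC complexes made by UV-ligand exchange, cleaving a UV-sensitive placeholder peptide and replacing it with the test peptide. Exchange yield measured by ELISA: streptavidin-captured monomers (diluted 100-fold, 1 h, 37 °C) detected with HRP anti-β2m and TMB, absorbance at 450 nm.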
Regarding “497 (GLLEKLTAI; listed as Homo sapiens) [compound 497]”, the Peptide exchange entry is “″+++″ (≥50% = +++)”. To “523 (YQIPRTFTL; listed as Homo sapiens) [compound 523]” belongs “″++″ (≥20% = ++)”; to “89 (YILPTETIYV; listed as Homo sapiens) [compound 89]”, “″++++″ (≥75% = ++++)”; to “550 (FLYDEIEAEVNL; listed as Homo sapiens) [compound 550]”, “″+++″ (≥50% = +++)”. Then “390 (ALFMKQIYL; listed as Homo sapiens) [compound 390]”, with “″+++″ (≥50% = +++)”; and “164 (ALLPQPKNLTV; listed as Homo sapiens) [compound 164]”, with “″+++″ (≥50% = +++)”; and “154 (ALDDGTPAL; listed as Homo sapiens) [compound 154]”, with “″++″ (≥20% = ++)”. Then “91 (IMQDFPAEIFL; listed as Homo sapiens) [compound 91]”, with “″++++″ (≥75% = ++++)”. In the case of “250 (ALSEEGLLVYL; listed as Homo sapiens) [compound 250]”, the Peptide exchange entry is listed as “″+++″ (≥50% = +++)”. With “508 (ILAQEQLVVGV; listed as Homo sapiens) [compound 508]”, the Peptide exchange result is reported as “″+++″ (≥50% = +++)”. Then “516 (AVGPASILKEV; listed as Homo sapiens) [compound 516]”, with “″++″ (≥20% = ++)”; and “426 (RLADKSVLV; listed as Homo sapiens) [compound 426]”, with “″+++″ (≥50% = +++)”; and “570 (ALANQIPTV; listed as Homo sapiens) [compound 570]”, with “″++″ (≥20% = ++)”. Turning to “64 (YAAPGGLIGV; listed as Homo sapiens) [compound 64]”, the Peptide exchange result is given as “″++″ (≥20% = ++)”. Then “326 (FLPEALDFV; listed as Homo sapiens) [compound 326]”, with “″+++″ (≥50% = +++)”; and “192 (KMLDGASFTL; listed as Homo sapiens) [compound 192]”, with “″+++″ (≥50% = +++)”.

On to “474 (YLDPALELGPRNV; listed as Homo sapiens) [compound 474]”, for which the Peptide exchange result was “″+++″ (≥50% = +++)”. For “562 (YLEELPEKLKL; listed as Homo sapiens) [compound 562]”, the Peptide exchange entry was “″+++″ (≥50% = +++)”. Then “187 (RQISIRGIVGV; listed as Homo sapiens) [compound 187]”, with “″+++″ (≥50% = +++)”. Then “146 (SLATAGDGLIEL; listed as Homo sapiens) [compound 146]”, with “″++″ (≥20% = ++)”; and “548 (ALWENPESGEL; listed as Homo sapiens) [compound 548]”, with “″++″ (≥20% = ++)”.

Regarding “399 (YLFEPLYHV; listed as Homo sapiens) [compound 399]”, the Peptide exchange entry is listed as “″+++″ (≥50% = +++)”.

In the case of “468 (YLRSVGDGETV; listed as Homo sapiens) [compound 468]”, the Peptide exchange result is given as “″+++″ (≥50% = +++)”. As to “478 (YLLHEKLNL; listed as Homo sapiens) [compound 478]”, the Peptide exchange result is given as “″+++″ (≥50% = +++)”. Consider “429 (GLVNDLARV; listed as Homo sapiens) [compound 429]”, for which the Peptide exchange result was “″++″ (≥20% = ++)”.

Turning to “124 (ALYETELADA; listed as Homo sapiens) [compound 124]”, the Peptide exchange entry is recorded as “″++″ (≥20% = ++)”.

For “367 (SLQNHNHQL; listed as Homo sapiens) [compound 367]”, the Peptide exchange result is reported as “″+++″ (≥50% = +++)”. Then “256 (FLPPEHTIVYI; listed as Homo sapiens) [compound 256]”, with “″+++″ (≥50% = +++)”; and “448 (NLLETKLQL; listed as Homo sapiens) [compound 448]”, with “″+++″ (≥50% = +++)”.

For the substance “175 (YLFENISQL; listed as Homo sapiens) [compound 175]”, the Peptide exchange entry is “″+++″ (≥50% = +++)”.

In the case of “96 (YIFTDNPAAV; listed as Homo sapiens) [compound 96]”, the Peptide exchange entry is “″+++″ (≥50% = +++)”. To “394 (LLAVIGGLVYL; listed as Homo sapiens) [compound 394]” belongs “″+++″ (≥50% = +++)”. For the substance “73 (NIFDLQIYV; listed as Homo sapiens) [compound 73]”, the Peptide exchange result is on record as “″+++″ (≥50% = +++)”. Turning to “251 (ALYTGFSILV; listed as Homo sapiens) [compound 251]”, the Peptide exchange entry was “″++″ (≥20% = ++)”. Then “248 (FLFPNQYVDV; listed as Homo sapiens) [compound 248]”, with “″+++″ (≥50% = +++)”; and “376 (AMFESSQNVLL; listed as Homo sapiens) [compound 376]”, with “″++″ (≥20% = ++)”.

For “273 (NLFQSVREV; listed as Homo sapiens) [compound 273]”, the Peptide exchange result is “″++″ (≥20% = ++)”. To “329 (FLVTLNNVEV; listed as Homo sapiens) [compound 329]” belongs “″++++″ (≥75% = ++++)”. Then “52 (FLLAHGLGFLL; listed as Homo sapiens) [compound 52]”, with “″++++″ (≥75% = ++++)”. Then “25 (FLPDEPYIKV; listed as Homo sapiens) [compound 25]”, with “″+++″ (≥50% = +++)”. Turning to “567 (SLLPLDDIVRV; listed as Homo sapiens) [compound 567]”, the Peptide exchange result was “″+++″ (≥50% = +++)”. “352 (SLLELLHIYV; listed as Homo sapiens) [compound 352]”: the Peptide exchange entry is on record as “″+++″ (≥50% = +++)”. For “573 (ILVANAIVGV; listed as Homo sapiens) [compound 573]”, the Peptide exchange result was “″+++″ (≥50% = +++)”. For “1 (SLMEPPAVLLL; listed as Homo sapiens) [compound 1]”, the Peptide exchange result is given as “″+++″ (≥50% = +++)”. Then “103 (TLAEEVVAL; listed as Homo sapiens) [compound 103]”, with “″+++″ (≥50% = +++)”. Then “93 (LLQAIKLYL; listed as Homo sapiens) [compound 93]”, with “″++″ (≥20% = ++)”; and “279 (ALWGGTQPLL; listed as Homo sapiens) [compound 279]”, with “″++″ (≥20% = ++)”; and “635 (SLDSTLHAV; listed as Homo sapiens) [compound 635]”, with “″+++″ (≥50% = +++)”.

As to “560 (ALWDIETGQQTTT; listed as Homo sapiens) [compound 560]”, the Peptide exchange entry is recorded as “″+++″ (≥50% = +++)”. Regarding “108 (ALFPGVALLLA; listed as Homo sapiens) [compound 108]”, the Peptide exchange result was “″++++″ (≥75% = ++++)”.

As to “70 (GLLDYPVGV; listed as Homo sapiens) [compound 70]”, the Peptide exchange result is listed as “″+++″ (≥50% = +++)”. As for “437 (SMAPGLVIQAV; listed as Homo sapiens) [compound 437]”, the Peptide exchange result is listed as “″+++″ (≥50% = +++)”. Then “311 (RLYTGMHTV; listed as Homo sapiens) [compound 311]”, with “″+++″ (≥50% = +++)”; and “212 (ALWDQDNLSV; listed as Homo sapiens) [compound 212]”, with “″++″ (≥20% = ++)”; and “466 (VLIANLEKL; listed as Homo sapiens) [compound 466]”, with “″++++″ (≥75% = ++++)”. Then “438 (KLLPLAGLYL; listed as Homo sapiens) [compound 438]”, with “″++++″ (≥75% = ++++)”; and “577 (VMFEDGVLMRL; listed as Homo sapiens) [compound 577]”, with “″+++″ (≥50% = +++)”.

For “34 (ILVEADSLWVV; listed as Homo sapiens) [compound 34]”, the Peptide exchange entry is on record as “″+++″ (≥50% = +++)”. To “408 (VLDDSIYLV; listed as Homo sapiens) [compound 408]” belongs “″++″ (≥20% = ++)”. To “398 (KLLEEDGTIITL; listed as Homo sapiens) [compound 398]” belongs “″++″ (≥20% = ++)”; to “372 (TMLLNIPLV; listed as Homo sapiens) [compound 372]”, “″++″ (≥20% = ++)”; to “45 (SLWQDIPDV; listed as Homo sapiens) [compound 45]”, “″+++″ (≥50% = +++)”. Regarding “195 (GLFADLLPRL; listed as Homo sapiens) [compound 195]”, the Peptide exchange result is “″+++″ (≥50% = +++)”. Then “611 (YLLDDGTLVV; listed as Homo sapiens) [compound 611]”, with “″++++″ (≥75% = ++++)”; and “301 (FLVEDLVDSL; listed as Homo sapiens) [compound 301]”, with “″+++″ (≥50% = +++)”; and “255 (VLASYNLTV; listed as Homo sapiens) [compound 255]”, with “″+++″ (≥50% = +++)”. For the substance “201 (RLVDYLEGI; listed as Homo sapiens) [compound 201]”, the Peptide exchange result is “″+++″ (≥50% = +++)”.

On to “47 (ILLSVPLLVV; listed as Homo sapiens) [compound 47]”, for which the Peptide exchange entry is given as “″++″ (≥20% = ++)”.

On to “578 (FLDPGGPMMKL; listed as Homo sapiens) [compound 578]”, for which the Peptide exchange entry was “″+++″ (≥50% = +++)”. To “272 (ALGNTVPAV; listed as Homo sapiens) [compound 272]” belongs “″+++″ (≥50% = +++)”.
